Columns and labels:
atm_human ATM = atm_human ATM (UniProt Q13315)
mdm2_human MDM2 = mdm2_human MDM2 (UniProt Q00987)
Chain of mdm2_human MDM2 (Q00987 whole entry, looked up): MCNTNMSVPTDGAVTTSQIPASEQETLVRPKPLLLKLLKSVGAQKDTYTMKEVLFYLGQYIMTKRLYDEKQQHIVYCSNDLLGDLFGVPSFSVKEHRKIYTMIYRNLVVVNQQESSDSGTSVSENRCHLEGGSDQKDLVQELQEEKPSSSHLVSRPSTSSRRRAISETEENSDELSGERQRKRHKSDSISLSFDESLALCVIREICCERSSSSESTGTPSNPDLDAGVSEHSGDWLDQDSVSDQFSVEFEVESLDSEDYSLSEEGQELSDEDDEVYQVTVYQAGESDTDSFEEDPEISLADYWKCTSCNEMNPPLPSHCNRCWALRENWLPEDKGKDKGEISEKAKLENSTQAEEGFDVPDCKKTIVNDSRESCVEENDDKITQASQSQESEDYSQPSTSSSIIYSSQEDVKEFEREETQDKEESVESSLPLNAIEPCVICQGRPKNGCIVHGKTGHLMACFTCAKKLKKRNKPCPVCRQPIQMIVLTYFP

Chain of atm_human ATM (Q13315 whole entry): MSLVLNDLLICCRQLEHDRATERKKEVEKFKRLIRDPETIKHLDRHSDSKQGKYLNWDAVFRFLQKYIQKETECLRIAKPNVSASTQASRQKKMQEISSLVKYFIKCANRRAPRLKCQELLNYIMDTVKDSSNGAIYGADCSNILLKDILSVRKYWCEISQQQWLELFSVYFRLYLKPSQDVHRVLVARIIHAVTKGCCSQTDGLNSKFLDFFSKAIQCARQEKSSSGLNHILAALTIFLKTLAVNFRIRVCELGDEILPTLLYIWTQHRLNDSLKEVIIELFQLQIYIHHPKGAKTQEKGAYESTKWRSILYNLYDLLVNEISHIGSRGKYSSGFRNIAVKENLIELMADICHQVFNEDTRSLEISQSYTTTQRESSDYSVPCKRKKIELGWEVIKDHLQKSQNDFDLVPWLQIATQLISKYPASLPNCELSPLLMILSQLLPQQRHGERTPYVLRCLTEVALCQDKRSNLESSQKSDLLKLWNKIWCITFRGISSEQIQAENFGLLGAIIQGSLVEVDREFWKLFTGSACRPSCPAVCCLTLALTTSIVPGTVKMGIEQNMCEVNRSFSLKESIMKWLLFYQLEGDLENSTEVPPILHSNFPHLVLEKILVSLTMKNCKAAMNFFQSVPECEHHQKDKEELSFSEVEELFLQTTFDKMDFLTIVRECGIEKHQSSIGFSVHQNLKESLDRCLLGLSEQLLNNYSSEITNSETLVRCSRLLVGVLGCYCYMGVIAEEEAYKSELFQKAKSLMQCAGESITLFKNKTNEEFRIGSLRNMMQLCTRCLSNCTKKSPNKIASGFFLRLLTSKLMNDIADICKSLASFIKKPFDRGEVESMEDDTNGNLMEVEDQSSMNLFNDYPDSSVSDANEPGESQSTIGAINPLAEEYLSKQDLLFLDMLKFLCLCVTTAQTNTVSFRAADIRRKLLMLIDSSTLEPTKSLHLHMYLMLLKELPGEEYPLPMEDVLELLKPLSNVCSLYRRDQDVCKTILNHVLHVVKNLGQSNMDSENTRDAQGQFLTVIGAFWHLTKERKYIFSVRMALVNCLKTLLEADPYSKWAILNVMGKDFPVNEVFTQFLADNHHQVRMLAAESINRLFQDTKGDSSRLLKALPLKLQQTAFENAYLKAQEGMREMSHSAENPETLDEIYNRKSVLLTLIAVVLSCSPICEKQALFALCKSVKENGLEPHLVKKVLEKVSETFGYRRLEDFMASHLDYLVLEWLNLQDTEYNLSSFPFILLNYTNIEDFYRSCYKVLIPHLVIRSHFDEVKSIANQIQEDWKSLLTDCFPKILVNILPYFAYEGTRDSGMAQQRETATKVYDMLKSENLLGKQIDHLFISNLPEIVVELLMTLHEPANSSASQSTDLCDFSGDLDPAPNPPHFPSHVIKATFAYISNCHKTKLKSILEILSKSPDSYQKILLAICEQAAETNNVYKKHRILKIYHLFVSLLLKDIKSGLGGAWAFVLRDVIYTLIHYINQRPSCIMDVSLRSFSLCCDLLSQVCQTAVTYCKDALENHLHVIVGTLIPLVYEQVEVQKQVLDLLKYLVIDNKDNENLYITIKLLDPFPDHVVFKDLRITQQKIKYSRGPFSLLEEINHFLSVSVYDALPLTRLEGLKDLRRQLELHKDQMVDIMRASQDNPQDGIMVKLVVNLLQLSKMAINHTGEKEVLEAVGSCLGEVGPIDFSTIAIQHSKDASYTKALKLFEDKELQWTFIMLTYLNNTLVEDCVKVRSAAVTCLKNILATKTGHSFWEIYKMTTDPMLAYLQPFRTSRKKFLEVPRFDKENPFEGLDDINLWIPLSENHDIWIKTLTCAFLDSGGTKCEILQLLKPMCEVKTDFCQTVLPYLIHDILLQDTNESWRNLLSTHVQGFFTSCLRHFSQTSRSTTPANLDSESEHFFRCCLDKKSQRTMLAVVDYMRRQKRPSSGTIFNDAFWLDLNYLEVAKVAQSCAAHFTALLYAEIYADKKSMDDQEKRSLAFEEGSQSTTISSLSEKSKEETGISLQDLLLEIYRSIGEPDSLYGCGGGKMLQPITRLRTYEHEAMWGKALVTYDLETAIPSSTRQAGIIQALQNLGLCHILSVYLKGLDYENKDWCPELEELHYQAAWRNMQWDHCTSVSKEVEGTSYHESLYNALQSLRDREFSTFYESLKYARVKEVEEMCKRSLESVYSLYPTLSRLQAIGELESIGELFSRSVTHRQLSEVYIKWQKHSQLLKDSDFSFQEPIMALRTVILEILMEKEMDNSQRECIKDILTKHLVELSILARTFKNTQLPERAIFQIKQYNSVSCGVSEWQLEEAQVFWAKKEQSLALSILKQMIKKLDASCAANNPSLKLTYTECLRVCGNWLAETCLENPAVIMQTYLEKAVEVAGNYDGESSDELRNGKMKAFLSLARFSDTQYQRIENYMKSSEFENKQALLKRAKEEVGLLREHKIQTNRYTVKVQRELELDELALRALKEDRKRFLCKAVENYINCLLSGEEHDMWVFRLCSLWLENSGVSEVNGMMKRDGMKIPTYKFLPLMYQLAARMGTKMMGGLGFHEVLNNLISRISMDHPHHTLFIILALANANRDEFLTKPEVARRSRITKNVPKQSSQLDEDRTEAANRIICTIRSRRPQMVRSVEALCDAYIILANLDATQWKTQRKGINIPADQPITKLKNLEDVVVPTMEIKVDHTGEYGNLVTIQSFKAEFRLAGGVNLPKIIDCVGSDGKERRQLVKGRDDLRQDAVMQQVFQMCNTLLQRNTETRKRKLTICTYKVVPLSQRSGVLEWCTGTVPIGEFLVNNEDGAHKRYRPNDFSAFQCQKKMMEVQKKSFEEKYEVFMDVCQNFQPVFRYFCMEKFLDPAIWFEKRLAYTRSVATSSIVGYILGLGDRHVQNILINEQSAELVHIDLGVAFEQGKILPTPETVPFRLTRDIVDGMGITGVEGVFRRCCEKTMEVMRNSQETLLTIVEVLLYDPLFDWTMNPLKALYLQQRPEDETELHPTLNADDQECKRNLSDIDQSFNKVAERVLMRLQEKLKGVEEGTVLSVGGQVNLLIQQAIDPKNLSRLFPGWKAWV

For “Serine-protein kinase ATM (Homo sapiens), Q13315 D2870A;N2875K”, the “effect of a mutation on the interaction” value (PPP2R5C, Q13362-1) was “disrupting interaction”.

With “Serine/threonine-protein phosphatase 2A 56 kDa regulatory subunit gamma isoform (Homo sapiens) (from UniProt Q13362-1) S520A” the “effect of a mutation on the interaction” value (atm_human ATM) was “disrupting interaction”.

“Serine/threonine-protein phosphatase 2A 56 kDa regulatory subunit gamma isoform (Homo sapiens) (from UniProt Q13362) S520D” was tested, and the “effect of a mutation on the interaction” value (mdm2_human MDM2) was “disrupting interaction”.
